Publication PMC4912634 (2016)

The binders below were run against tubulin heterodimer (porcine/bovine brain tubulin) ( (porcine or bovine brain), UniProt Q6B856 1-445) (assay: ITC).
Sequence of tubulin heterodimer (porcine/bovine brain tubulin) (chain, as listed by the source, chain 1 of 2): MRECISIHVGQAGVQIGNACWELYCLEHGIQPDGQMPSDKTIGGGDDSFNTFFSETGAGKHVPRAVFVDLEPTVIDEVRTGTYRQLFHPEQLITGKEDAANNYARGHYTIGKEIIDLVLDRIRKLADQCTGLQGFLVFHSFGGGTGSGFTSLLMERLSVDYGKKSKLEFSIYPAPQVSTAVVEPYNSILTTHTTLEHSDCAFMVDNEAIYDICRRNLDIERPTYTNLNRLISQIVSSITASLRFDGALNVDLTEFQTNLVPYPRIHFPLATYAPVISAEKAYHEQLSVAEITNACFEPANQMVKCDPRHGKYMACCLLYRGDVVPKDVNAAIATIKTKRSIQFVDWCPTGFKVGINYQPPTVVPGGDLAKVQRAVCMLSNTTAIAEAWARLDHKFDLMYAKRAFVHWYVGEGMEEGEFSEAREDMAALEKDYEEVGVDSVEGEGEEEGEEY
Sequence of tubulin heterodimer (porcine/bovine brain tubulin) (Q6B856 whole entry, chain 2 of 2): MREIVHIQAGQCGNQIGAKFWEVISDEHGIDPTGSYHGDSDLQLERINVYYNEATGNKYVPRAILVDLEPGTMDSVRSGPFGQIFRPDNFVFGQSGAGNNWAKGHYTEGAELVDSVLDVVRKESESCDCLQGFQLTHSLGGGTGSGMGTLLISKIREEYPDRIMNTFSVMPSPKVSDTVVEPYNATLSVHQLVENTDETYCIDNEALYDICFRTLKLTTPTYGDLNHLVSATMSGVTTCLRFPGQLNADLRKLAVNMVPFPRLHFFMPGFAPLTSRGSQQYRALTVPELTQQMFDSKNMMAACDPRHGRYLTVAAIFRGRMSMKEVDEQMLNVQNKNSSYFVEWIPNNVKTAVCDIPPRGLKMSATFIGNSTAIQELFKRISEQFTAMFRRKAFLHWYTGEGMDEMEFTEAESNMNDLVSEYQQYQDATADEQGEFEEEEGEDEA

Kd | Binder
136 nM | Y341A (protein) VANIEERPIKAAIGERKQTFEDALEEQIQLEEQELKQKQLKEAEGPLPIKAKPKQPFLKRGEGLARFTNAKSKFQK
256 nM | EE349RR (protein) VANIEERPIKAAIGERKQTFEDYLEEQIQLRRQELKQKQLKEAEGPLPIKAKPKQPFLKRGEGLARFTNAKSKFQK
400 nM | K372E (protein) VANIEERPIKAAIGERKQTFEDYLEEQIQLEEQELKQKQLKEAEGPLPIKAKPEQPFLKRGEGLARFTNAKSKFQK
116 nM | F338A (protein) VANIEERPIKAAIGERKQTAEDYLEEQIQLEEQELKQKQLKEAEGPLPIKAKPKQPFLKRGEGLARFTNAKSKFQK
1900 nM | R384E (protein) VANIEERPIKAAIGERKQTFEDYLEEQIQLEEQELKQKQLKEAEGPLPIKAKPKQPFLKRGEGLAEFTNAKSKFQK
143 nM | ED339RR (protein) VANIEERPIKAAIGERKQTFRRYLEEQIQLEEQELKQKQLKEAEGPLPIKAKPKQPFLKRGEGLARFTNAKSKFQK
100 nM | F385A (protein) VANIEERPIKAAIGERKQTFEDYLEEQIQLEEQELKQKQLKEAEGPLPIKAKPKQPFLKRGEGLARATNAKSKFQK
800 nM | R378E (protein) VANIEERPIKAAIGERKQTFEDYLEEQIQLEEQELKQKQLKEAEGPLPIKAKPKQPFLKEGEGLARFTNAKSKFQK
1300 nM | K377E (protein) VANIEERPIKAAIGERKQTFEDYLEEQIQLEEQELKQKQLKEAEGPLPIKAKPKQPFLERGEGLARFTNAKSKFQK

Each binder was assayed against DARPin-tubulin complex (used in ITC) ( (porcine or bovine brain), UniProt Q6B856 1-445) (assay: ITC).
Sequence of DARPin-tubulin complex (used in ITC) (chain, as listed by the source, chain 1 of 3): as the sequence (chain, as listed by the source, chain 1 of 2) above
Sequence of DARPin-tubulin complex (used in ITC) (Q6B856 whole entry, chain 2 of 3): as the sequence (Q6B856 whole entry, chain 2 of 2) above
Sequence of DARPin-tubulin complex (used in ITC) (chain, as listed by the source, chain 3 of 3): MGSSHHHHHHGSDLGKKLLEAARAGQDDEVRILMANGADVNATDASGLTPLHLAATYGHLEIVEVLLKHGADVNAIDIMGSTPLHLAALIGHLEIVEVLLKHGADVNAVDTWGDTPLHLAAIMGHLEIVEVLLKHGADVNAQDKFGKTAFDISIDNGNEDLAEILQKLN

Kd | Binder
3400 nM | KQPFLKRGEGLARFTNAKSKFQK [PN2-3C peptide (PN2-3's C-terminus, aa 372-394 of CPAP)]
